Reference: patent publication US20140056903A1 (Regeneron, published 2014)
Numbering of substitutions follows the chain as printed. Names may count otherwise.

T1: human GFRα3 expressed with a C-terminal mFc tag (human)
T1 construct: also called hGFRα3-mFc
T1 chain: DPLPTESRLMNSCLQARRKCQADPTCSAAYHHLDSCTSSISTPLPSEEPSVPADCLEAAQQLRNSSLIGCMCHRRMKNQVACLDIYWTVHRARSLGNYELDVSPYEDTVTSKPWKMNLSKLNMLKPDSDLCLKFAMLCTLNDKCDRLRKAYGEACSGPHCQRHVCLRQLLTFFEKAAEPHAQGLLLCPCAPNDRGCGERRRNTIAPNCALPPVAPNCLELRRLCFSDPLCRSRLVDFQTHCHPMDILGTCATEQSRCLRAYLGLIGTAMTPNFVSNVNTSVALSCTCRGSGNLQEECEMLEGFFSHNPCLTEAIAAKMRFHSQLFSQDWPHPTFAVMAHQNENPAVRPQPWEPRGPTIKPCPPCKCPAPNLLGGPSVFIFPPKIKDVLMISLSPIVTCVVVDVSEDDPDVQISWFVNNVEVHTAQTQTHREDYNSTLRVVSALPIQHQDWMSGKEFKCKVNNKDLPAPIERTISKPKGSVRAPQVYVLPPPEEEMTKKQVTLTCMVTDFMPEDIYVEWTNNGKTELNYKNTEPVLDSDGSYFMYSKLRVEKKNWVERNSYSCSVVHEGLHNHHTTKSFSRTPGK

B1: H4H2342P (antibody, human IgG4, V domains shown)
VH: EVQLLESGGGLVQPGGSLRLSCAASGFTFSTYAMSWVRQAPGKGLEWVSAIRGNGVNTYYGDSMKGRFTISRDNSKDTLYLQMNSLRAEDTAVYYCAKNKWELLVFEYWGQGTLVTVSS
VL: DIQMTQSPSSLSASVGDRVTITCRASQDISNYLAWYQQKPGKVPKLLIYAASTLQSGVPFRFSGSGSGTDFTLTISSLQPEDVATYYCQKYNSAPPFGPGTKVDIK
notes: human IgG4 Fc (H4H)
B2: H4H2350P (antibody, human IgG4, V domains shown)
VH: QVQLQESGPGLVKPSETLSLTCTVSGGSISTYYWSWFRQPPGKGLEWIGYIYYSGSTNHNPSLKSRVTISVDTSKNQFSLKLRSVTAADTAVYYCARVGPVGWGSWGNFDYWGQGTLVTVSS
VL: DIQLTQSPSFLSASVGDRVTITCWASQGISSYLAWSQQKPGKAPKLLIYAASTLQSGVPSRFSGSGSGTEFTLTISSLQPEDFATYYCQQLNSYPWTFGQGTKVEIK
notes: human IgG4 Fc (H4H)
B3: H4H2355S (antibody, human IgG4, V domains shown)
VH: EVQLVESGGGLVQPGGSLRLSCAASGFTFSSYAMSWVRQVPGKGLEWVSAISGSGDNTYNAESVKGRFTISRDNSKNMLYLQMNSLRAEDTAVYYCAKTKFSSSLLFDYWGQGTLVTVSS
VL: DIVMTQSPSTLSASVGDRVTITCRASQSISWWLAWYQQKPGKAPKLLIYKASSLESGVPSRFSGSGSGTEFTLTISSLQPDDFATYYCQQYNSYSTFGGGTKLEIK
notes: human IgG4 Fc (H4H)
B4: H4H2291S (antibody, human IgG4, V domains shown)
VH: EVQLVESGGGLVQPGESLRLSCAASGFTFSNYAMSWVRQAPGKGLEWVSVISGSGGSTYYADSVKGRFTMSRDNSKNTLYLQMNSLRAEDTAVYYCAKPPSRAARYFNYGMDVWGQGTTVTVSS
VL: AIRMTQSPSSVSASVGDRVTITCRASQGISSWLAWYQQKPGKAPKLLIYAASSLQSGVPSRFSGSGSGTDFTLTISSLQPEDFATYYCQQANSFPFTFGGGTKVEIK
notes: human IgG4 Fc (H4H)
B5: H4H2357S (antibody, human IgG4, V domains shown)
VH: EVQLVESGGGLVQPGGSLRLSCAASTFTFSSYAMTWVRQAPGKGLEWVSSISGSGDSTYYADSVKGRFTISRDNSKNTLFLQMNSLRAEDTAVYYCAKKDGPGRYYVRYGMDVWGQGTTVTVSS
VL: B4 VL with A1D, R3Q, A50T, A51T, F96L, E105D
notes: human IgG4 Fc (H4H)
B6: H4H2295S (antibody, human IgG4, V domains shown)
VH: EVQLVESGGGLVQAGGSLRLSCVASGFTFSSYAMSWVRQAPGKGLEWVSAISGSGGSTYSADSVKGRFTISRDNSKNTLYLQMNSLRAEDTAVYYCTKPSSYSSSNFYYGMDVWGQGTTVTVSS
VL: B4 VL with A1D, R3Q, A50T, G68R, A91T, F94L, F96L, G100P
notes: human IgG4 Fc (H4H)
B7: H4H2296S (antibody, human IgG4, V domains shown)
VH: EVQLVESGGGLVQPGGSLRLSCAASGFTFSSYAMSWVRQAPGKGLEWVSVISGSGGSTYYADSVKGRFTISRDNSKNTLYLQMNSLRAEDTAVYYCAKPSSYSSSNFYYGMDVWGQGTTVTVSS
VL: B4 VL with A1D, R3V, Q55R, S76T, Q90H, A91T, G100P
notes: human IgG4 Fc (H4H)
B8: H4H2294S (antibody, human IgG4, V domains shown)
VH: B6 VH with A14P, V23A, A50V, S60Y, S63A, N77H, T118S
VL: B4 VL with A1D, R3Q, M4L, A91T, T97P, G100P, E105D
notes: human IgG4 Fc (H4H)
B9: H4H2292S (antibody, human IgG4, V domains shown)
VH: EVQLVESGGGVVQPGRSLRLSCAASGFTFSSYGMHWVRQAPGKGLEWVSFIWYDGSNKYYADSVKGRFTISRDNSKNTLYLQMNSLTAEDTAVYYCARRGILTGTTAFDIWGQGTMVTVSS
VL: DIQMTQSPSSLSASVGDRVTITCRASQSISSYLNWYQQKPGKAPKLLIYAASSLQSGVPSRFSGSGSGTDFTLTIRSLIPEDFATYYCQQTYNTPFTFGPGTKVEIK
notes: human IgG4 Fc (H4H)
B10: H4H2352S (antibody, human IgG4, V domains shown)
VH: EVQLVQSGAEVKKPGASVKVSCKASGYTFTNYGITWVRQAPGQGLEWMGWISAYNGNTGYAQKFQGRVTMTTDTSTSTAYMELRSLRSDDTAVYYCAREDYDFWRAFDIWGQGTMVTVSS
VL: EIVLTQSPGTLSLSPGERATLSCRASQSVSSTYLAWLQQKPGQAPRLLIYGASSRATGIPDRFSGSGSGTDFTLTINRLEPEDFAVYYCQQYAYSPYTFGQGTKLEIK
notes: human IgG4 Fc (H4H); also called H4H2352S-1

Experiments:
[1] = molecular target: T2, human GFRα3 expressed with a C-terminal myc-myc-hexahistidine tag (human, UniProt O60609 32-374, biotinylated (sites not given) in ELISA format 2 and in the Octet cross-competition; not in SPR); assay: Octet cross-competition; biotin-hGFRα3-mmH pre-saturated with first antibody H4H2292S
T2 construct: also called hGFRα3-mmh; hGFRα3-mmH
Description: (§1) A cross-competition assay was conducted to assess the ability of select antibodies to compete with one another for binding to human GFRα3 using an Octet RED384 biosensor (Fortebio Inc.). The entire experiment was performed at 25° C. with the flow rate of 1000 rpm in Octet HBST buffer (0.01 M HEPES pH7.4, 0.15M NaCl, 3 mM EDTA, 0.05% v/v Surfactant P20, 0.1 mg/mL BSA). To assess whether 2 antibodies were able to compete with one another for binding to their respective epitopes on biotinylated recombinant human GFRα3 expressed with a C-terminal myc-myc-hexahistidine tag (biotin-hGFRα3-mmH; SEQ ID:370), around ˜1.2 nm of biotin-hGFRα3-mmH was first captured onto streptavidin-coated Octet sensor tips (Fortebio Inc, #18-5019) by submerging the tips for 1 minute into a 10 μg/mL solution of biotin-hGFRα3-mmH. The antigen coated sensor tips were then placed into wells containing 25 μg/mL solution of a first anti-GFRα3 monoclonal antibody for 4 minutes to saturate the biotin-hGFRα3-mmH surface. The sensor tips were then subsequently dipped into wells containing 25 μ/mL solution of a second anti-GFRα3 monoclonal antibody. The sensor tips were washed in Octet HBST buffer in between every step of the experiment. The real-time binding response was monitored during the course of the experiment and the binding response at the end of every step was recorded as shown in FIG. 9. The response of mAb-2 binding to biotin-hGFRα3-mmH pre-complexed with the first antibody was compared and competitive/non-competitive behavior of different anti-GFRα3 monoclonal antibodies was determined.

[2] = molecular target: T2, human GFRα3 expressed with a C-terminal …; assay: Octet cross-competition; biotin-hGFRα3-mmH pre-saturated with first antibody H4H2291S
Description: as §1

[3] = molecular target: T1, human GFRα3 expressed with a C-terminal …; assay: SPR, Ab captured, 25C
Description: (§2) Antibodies were tested for binding to human GFRα3 expressed with either a C-terminal myc-myc-hexahistidine tag (hGFRα3-mmh; SEQ ID: 370, a C-terminal hFc tag (hGFRα3-hFc; SEQ ID:371), or a C-terminal mFc tag (hGFRα3-mFc; SEQ ID:372), as well as monkey GFRα3 expressed with a C-terminal myc-myc-hexahistidine tag (MfGFRα3-mmh; SEQ ID:373). Anti-GFRα3 antibodies were captured on either a goat anti-mouse IgG polyclonal antibody (GE Healthcare, #BR-1008-38) or a mouse anti-human IgG monoclonal antibody (GE Healthcare, #BR-1008-39) surface created through direct amine coupling to a Biacore CM5 sensor chip. Kinetic experiments were carried out using HBS-EP (10 mM HEPES, 150 mM NaCl, 3 mM EDTA, 0.05% Surfactant P20, at pH 7.4) or PBS buffer containing 0.05% v/v surfactant P20 as both the running buffer and the sample buffer. Binding to human GFRα3-mmh or monkey GFRα3-mmh was evaluated by injecting several concentrations ranging from 200 to 7.4 nM (3-fold dilutions) across the captured antibody surface. Binding to human GFRα3-mFc or human GFRα3-hFc was evaluated by injecting several concentrations ranging from 100 to 3.7 nM (3-fold dilutions) across the captured antibody surface. Antibody-antigen association was monitored for up to 4 minutes, while dissociation in buffer was monitored for up to 20 minutes. Kinetic association (kₐ) and dissociation (kd) rate constants were determined by processing and fitting the data to a 1:1 binding model using Scrubber 2.0c curve fitting software. Binding dissociation equilibrium constants (KD) and dissociative half-lives (t_{1/2}) were calculated from the kinetic rate constants as: KD (M)=kd/kₐ and t_{1/2} (min)=[ln 2/(60*kd)].

[4] = molecular target: T2, human GFRα3 expressed with a C-terminal …; assay: SPR, Ab captured, 25C
Description: as §2

| binding response of second antibody (nm) [1] [nm] | binding response of second antibody (nm) [2] [nm] | Kd [3] [nM] | koff [3] [s⁻¹] | kon [3] [M⁻¹ s⁻¹] | t1/2 [3] [h] | Kd [4] [nM] | koff [4] [s⁻¹] | kon [4] [M⁻¹ s⁻¹] | t1/2 [4] [h] | Binder |
| --- | --- | --- | --- | --- | --- | --- | --- | --- | --- | --- |
| 2.16 | -0.01 | ≤ 0.00151 | ≤ 1e-06 | 661000 | 192 | 1.1 | 0.000204 | 186000 | 0.95 | B1 |
| 1.53 | 1.44 | 0.0416 | 2.12e-05 | 509000 | 9.08 | 2.01 | 0.000207 | 103000 | 0.933 | B2 |
| 2.07 | 0 | ≤ 0.00164 | ≤ 1e-06 | 611000 | 192 | 0.821 | 0.000152 | 186000 | 1.27 | B3 |
| 2.81 | 0.05 | 0.00463 | 4.78e-06 | 1.03e+06 | 40.3 | 0.393 | 0.000164 | 418000 | 1.17 | B4 |
| 2.43 | 0 | 0.0324 | 2.52e-05 | 779000 | 7.63 | 2.42 | 0.000557 | 230000 | 0.35 | B5 |
| 2.31 | 0 | 0.00157 | 1.69e-06 | 1.08e+06 | 114 | 0.54 | 0.000256 | 475000 | 0.75 | B6 |
| 2.36 | -0.01 | 0.00337 | 4.17e-06 | 1.24e+06 | 46.2 | 0.332 | 0.000187 | 563000 | 1.03 | B7 |
| 2.31 | 0 | 0.00463 | 5.63e-06 | 1.22e+06 | 34.2 | 0.142 | 7.99e-05 | 563000 | 2.42 | B8 |
| 0.11 | 1.94 | ≤ 0.00187 |  | 534000 | 192 | 0.483 | 5.19e-05 | 108000 | 3.72 | B9 |
| 0.34 | 2.03 | ≤ 0.000467 | ≤ 1e-06 | 2.14e+06 | 192 | 0.082 | 5.81e-05 | 709000 | 3.32 | B10 |
